Molecular target: T4 capsid (empty HocΔSocΔ head from the 10-amber.13-amber.HocΔ.SocΔ T4 mutant) (bacteriophage T4) (UniProt P19896)
Test: co-sedimentation

For Cpf1-Soc, the stoichiometry N (molecules per capsid) was 450.

With Cre-Hoc the stoichiometry N (molecules per capsid) was 95.

In the case of Cre-Soc, the stoichiometry N (molecules per capsid) is reported as 630.

GFP-Soc showed a stoichiometry N (molecules per capsid) of 660.

For NLS-Cas9-Soc, the stoichiometry N (molecules per capsid) was 550.

In the case of RGD-Hoc, the stoichiometry N (molecules per capsid) is reported as 85.

In the case of Soc-RGD, the stoichiometry N (molecules per capsid) is reported as 710.

Soc-TAT was tested, and the stoichiometry N (copies per capsid) was 520 and the stoichiometry N (molecules per capsid) was 750.

β-Gal-Soc gave a stoichiometry N (molecules per capsid) of 320.

From article PMC10229621
